Drawing on paper PMC2248580, this text covers Kd, koff and kon for 2 molecules.

The experiment deals with human activated blood coagulation factor X (FXa) (human). Briefly: SPR; […]; 37°C; HBS (10 mM Hepes, 150 mM NaCl, 5 mM CaCl2, 0.005% P20, pH 7.4); Langmuir fit; […].
Sequence of human activated blood coagulation factor X (FXa) (human) (P00742 whole entry): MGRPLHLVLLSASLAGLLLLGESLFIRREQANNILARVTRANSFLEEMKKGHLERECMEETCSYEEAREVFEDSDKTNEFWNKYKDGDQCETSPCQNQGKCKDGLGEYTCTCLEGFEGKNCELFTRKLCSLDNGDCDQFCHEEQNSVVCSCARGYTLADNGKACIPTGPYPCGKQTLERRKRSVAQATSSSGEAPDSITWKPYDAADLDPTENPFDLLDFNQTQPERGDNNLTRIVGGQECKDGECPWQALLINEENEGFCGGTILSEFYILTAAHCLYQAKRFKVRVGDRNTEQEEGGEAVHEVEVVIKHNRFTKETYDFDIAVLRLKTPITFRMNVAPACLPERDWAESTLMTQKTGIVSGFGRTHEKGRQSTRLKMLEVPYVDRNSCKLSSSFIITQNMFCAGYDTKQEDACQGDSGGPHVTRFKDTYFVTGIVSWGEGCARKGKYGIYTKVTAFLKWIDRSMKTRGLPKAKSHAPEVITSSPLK

B1: Non-pancreatic secreted human group IIA phospholipase A2 (enzyme)
chain: NLVNFHRMIKLTTGKEAALSYGFYGCHCGVGGRGSPKDATDRCCVTHDCCYKRLEKRGCGTKFLSYKFSNSGSRITCAKQDSCRSQLCECDKAAATCFARNKTTYNKKYQYYSNKHCRGSTPRC
Molecule B1 had a Kd of 14 nM, a koff of 0.029 s⁻¹ and a kon of 2e+06 M⁻¹ s⁻¹.

B2: isoform A of ammodytoxin from Vipera ammodytes ammodytes venom (enzyme)
chain: SLLEFGMMILGETGKNPLTSYSFYGCYCGVGGKGTPKDATDRCCFVHDCCYGNLPDCSPKTDRYKYHRENGAIVCGKGTSCENRICECDRAAAICFRKNLKTYNYIYRNYPDFLCKKESEKC
In turn, B2 yielded a dissociation constant Kd of 30 nM, a koff of 0.007 s⁻¹ and a kon of 220000 M⁻¹ s⁻¹.
